Laboratory results published in article PMC8091981 (Genes & Development, 2021).

Molecular target: T1, Spt6-YW-FLAG (Y255A, W257A) (S. cerevisiae, UniProt P23615 1-1451, Y255A | W257A)
T1 sequence (looked up): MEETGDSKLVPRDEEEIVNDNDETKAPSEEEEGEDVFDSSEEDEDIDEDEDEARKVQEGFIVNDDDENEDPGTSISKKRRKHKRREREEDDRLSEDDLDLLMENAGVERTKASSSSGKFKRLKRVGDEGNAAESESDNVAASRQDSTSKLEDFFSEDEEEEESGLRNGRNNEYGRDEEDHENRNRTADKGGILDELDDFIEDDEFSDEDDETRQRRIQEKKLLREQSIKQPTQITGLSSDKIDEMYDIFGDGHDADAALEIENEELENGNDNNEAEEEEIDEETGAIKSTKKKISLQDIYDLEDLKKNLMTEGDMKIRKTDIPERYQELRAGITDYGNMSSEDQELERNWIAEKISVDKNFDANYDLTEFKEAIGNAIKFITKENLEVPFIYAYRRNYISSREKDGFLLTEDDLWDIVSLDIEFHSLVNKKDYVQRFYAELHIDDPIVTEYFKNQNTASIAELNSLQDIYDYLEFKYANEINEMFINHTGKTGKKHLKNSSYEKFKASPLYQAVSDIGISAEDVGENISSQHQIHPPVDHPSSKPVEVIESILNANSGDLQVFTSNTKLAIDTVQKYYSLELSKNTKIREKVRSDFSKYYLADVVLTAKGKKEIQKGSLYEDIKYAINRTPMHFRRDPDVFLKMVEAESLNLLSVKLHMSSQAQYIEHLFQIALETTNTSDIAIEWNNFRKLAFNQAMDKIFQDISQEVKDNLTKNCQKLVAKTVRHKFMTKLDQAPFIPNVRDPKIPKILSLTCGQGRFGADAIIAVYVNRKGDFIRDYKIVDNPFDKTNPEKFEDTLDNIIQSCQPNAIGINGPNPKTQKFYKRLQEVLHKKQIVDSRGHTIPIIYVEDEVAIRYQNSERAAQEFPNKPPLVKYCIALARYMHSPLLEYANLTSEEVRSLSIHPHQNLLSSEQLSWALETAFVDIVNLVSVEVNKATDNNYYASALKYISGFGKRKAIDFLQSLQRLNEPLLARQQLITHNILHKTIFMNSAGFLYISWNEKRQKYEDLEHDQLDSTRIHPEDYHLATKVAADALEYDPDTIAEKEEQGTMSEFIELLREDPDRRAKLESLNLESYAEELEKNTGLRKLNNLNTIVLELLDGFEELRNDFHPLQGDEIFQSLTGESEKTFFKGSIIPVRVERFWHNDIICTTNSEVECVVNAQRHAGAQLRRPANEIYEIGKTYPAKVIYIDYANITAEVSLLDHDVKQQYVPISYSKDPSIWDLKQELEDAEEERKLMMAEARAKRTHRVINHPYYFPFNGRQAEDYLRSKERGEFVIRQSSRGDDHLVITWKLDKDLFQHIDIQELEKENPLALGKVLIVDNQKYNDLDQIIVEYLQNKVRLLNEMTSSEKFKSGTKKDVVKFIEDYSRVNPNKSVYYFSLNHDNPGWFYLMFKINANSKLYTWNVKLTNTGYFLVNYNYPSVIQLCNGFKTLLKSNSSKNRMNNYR
Experiment: co-IP

B1: Spn1 (natural protein, S. cerevisiae, UniProt Q06505 1-410, looked up)
chain: MSTADQEQPKVVEATPEDGTASSQKSTINAENENTKQNQSMEPQETSKGTSNDTKDPDNGEKNEEAAIDENSNVEAAERKRKHISTDFSDDDLEKEEHNDQSLQPTVENRASKDRDSSATPSSRQELEEKLDRILKKPKVRRTRRDEDDLEQYLDEKILRLKDEMNIAAQLDIDTLNKRIETGDTSLIAMQKVKLLPKVVSVLSKANLADTILDNNLLQSVRIWLEPLPDGSLPSFEIQKSLFAALNDLPVKTEHLKESGLGRVVIFYTKSKRVEAQLARLAEKLIAEWTRPIIGASDNYRDKRIMQLEFDSEKLRKKSVMDSAKNRKKKSKSGEDPTSRGSSVQTLYEQAAARRNRAAAPAQTTTDYKYAPVSNLSAVPTNARAVGVGSTLNNSEMYKRLTSRLNKKHK
  fold decrease of co-IP against wild-type Spt6-FLAG: 20 fold
